Patent publication US20140072613A1, “Compositions and Methods for Treating Cutaneous Scarring” (priority 2012, published 2014)

Tests used:
Assay in all cases: cell-based or functional assay
EphA5(h) (human) = molecular target: T1, EphA5(h) (human) (UniProt P54756)
T1 sequence (looked up): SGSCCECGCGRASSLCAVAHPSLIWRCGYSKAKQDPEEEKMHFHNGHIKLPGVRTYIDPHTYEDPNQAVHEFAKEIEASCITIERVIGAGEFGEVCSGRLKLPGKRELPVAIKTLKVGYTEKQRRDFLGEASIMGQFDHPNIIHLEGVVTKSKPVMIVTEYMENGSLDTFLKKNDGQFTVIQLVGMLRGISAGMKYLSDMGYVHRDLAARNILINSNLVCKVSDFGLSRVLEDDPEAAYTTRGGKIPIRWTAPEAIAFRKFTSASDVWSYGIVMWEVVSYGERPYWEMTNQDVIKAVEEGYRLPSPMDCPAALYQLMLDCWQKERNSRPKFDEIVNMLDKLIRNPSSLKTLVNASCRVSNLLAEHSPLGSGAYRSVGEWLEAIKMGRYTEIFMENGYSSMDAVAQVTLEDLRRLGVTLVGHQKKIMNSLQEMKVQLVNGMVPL

IRAK1(h) (human) = IRAK1(h) (human) (UniProt P51617)
Chain of IRAK1(h) (human) (P51617 194-712 limits assumed): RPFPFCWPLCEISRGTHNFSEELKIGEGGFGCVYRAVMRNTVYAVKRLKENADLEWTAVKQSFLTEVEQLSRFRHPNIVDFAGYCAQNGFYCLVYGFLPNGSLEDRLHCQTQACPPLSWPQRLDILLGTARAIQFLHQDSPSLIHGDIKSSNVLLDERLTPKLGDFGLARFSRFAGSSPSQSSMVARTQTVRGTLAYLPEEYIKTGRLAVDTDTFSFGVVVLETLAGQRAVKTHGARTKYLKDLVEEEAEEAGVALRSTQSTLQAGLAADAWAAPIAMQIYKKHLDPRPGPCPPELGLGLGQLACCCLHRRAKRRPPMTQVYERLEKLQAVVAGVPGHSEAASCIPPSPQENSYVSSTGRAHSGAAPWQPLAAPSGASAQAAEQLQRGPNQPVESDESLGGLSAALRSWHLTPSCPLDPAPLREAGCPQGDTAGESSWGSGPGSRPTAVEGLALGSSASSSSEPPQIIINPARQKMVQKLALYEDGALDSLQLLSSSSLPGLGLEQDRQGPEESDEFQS

CaMKIIδ(h) (human) = CaMKIIδ(h) (human) (UniProt Q13557)
Chain of CaMKIIδ(h) (human) (Q13557 whole entry, stated change not applied): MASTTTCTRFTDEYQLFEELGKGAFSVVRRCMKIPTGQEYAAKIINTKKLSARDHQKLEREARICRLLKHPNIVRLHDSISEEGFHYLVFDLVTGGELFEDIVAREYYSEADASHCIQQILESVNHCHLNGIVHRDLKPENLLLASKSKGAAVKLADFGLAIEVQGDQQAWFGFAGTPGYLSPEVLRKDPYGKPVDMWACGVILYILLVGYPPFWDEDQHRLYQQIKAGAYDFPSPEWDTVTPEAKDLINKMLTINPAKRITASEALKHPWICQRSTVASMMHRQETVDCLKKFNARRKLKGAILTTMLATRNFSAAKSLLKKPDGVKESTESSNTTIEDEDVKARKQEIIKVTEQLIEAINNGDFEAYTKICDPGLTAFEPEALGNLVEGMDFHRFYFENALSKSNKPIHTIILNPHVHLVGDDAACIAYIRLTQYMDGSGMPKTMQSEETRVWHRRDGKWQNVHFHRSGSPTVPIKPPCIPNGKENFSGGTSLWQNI

Snk(h) (human) = Snk(h) (human) (UniProt Q9NYY3)
Chain of Snk(h) (human) (Q9NYY3 whole entry): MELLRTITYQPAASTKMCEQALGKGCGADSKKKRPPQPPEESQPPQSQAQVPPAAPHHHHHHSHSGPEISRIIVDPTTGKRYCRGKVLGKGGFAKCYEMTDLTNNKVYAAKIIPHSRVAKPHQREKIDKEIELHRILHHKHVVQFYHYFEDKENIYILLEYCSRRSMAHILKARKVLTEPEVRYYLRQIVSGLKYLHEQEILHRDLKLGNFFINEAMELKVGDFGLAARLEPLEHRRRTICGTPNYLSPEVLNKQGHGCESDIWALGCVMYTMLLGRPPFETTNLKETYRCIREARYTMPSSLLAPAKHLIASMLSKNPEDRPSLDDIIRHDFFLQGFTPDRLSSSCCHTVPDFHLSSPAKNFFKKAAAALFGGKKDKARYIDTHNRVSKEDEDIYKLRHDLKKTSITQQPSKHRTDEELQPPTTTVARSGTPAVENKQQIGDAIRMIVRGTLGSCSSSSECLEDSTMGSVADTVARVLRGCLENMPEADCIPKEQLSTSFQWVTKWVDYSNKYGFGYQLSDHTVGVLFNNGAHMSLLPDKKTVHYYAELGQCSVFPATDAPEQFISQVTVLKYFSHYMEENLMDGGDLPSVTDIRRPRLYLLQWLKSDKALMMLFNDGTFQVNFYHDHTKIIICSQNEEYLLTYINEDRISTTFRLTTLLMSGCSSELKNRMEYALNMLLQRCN

MLCK(h) (human) = molecular target: MLCK(h) (human)
EphA1(h) (human) = molecular target: T2, EphA1(h) (human) (UniProt P21709)
T2 sequence (looked up): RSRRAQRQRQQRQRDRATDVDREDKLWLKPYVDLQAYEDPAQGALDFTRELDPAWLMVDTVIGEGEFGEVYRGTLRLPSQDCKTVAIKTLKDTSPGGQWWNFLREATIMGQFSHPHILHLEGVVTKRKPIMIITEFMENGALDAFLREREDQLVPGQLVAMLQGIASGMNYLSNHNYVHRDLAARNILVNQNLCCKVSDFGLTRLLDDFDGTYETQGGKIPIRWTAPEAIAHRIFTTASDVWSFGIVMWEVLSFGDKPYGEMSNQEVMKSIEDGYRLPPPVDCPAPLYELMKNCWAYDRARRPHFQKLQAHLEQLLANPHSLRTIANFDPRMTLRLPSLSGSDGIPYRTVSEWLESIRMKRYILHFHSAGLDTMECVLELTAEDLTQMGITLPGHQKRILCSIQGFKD

SGK3(h) (human) = molecular target: T3, SGK3(h) (human) (UniProt Q96BR1)
T3 sequence (looked up): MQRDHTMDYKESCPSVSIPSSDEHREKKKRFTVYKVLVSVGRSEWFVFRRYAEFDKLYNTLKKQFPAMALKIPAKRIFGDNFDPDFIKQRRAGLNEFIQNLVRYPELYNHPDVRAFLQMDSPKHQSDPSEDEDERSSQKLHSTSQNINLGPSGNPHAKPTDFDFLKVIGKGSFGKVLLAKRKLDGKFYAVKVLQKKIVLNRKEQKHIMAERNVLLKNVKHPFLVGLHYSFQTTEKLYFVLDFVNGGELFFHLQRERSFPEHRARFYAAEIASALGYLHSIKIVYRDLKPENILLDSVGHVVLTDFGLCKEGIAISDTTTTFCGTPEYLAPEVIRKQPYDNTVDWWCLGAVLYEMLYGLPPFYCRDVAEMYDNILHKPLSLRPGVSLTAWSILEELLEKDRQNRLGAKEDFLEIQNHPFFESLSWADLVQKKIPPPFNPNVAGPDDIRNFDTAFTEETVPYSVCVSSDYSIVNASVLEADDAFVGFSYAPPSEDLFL

SRPK2(h) (human) = SRPK2(h) (human) (UniProt P78362)
Chain of SRPK2(h) (human) (P78362 whole entry): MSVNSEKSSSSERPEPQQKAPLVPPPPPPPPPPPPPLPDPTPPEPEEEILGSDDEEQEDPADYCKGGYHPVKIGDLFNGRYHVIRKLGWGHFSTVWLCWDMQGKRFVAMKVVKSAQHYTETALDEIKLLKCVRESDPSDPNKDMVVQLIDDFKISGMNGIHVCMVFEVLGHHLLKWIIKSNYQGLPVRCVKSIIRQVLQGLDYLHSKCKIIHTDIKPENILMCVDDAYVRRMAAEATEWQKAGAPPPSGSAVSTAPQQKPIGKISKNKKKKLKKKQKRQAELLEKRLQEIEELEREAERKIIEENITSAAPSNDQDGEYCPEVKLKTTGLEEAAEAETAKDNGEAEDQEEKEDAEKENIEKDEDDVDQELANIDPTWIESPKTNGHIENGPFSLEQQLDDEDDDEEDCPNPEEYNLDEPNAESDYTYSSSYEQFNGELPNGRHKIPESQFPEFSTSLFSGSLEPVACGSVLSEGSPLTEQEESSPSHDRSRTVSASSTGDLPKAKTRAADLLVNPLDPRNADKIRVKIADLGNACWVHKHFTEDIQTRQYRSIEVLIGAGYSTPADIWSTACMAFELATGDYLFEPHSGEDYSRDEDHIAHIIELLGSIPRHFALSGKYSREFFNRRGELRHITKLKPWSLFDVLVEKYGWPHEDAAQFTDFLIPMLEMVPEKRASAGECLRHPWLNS

NLK(h) (human) = molecular target: T4, NLK(h) (human) (UniProt Q9UBE8)
T4 sequence (looked up): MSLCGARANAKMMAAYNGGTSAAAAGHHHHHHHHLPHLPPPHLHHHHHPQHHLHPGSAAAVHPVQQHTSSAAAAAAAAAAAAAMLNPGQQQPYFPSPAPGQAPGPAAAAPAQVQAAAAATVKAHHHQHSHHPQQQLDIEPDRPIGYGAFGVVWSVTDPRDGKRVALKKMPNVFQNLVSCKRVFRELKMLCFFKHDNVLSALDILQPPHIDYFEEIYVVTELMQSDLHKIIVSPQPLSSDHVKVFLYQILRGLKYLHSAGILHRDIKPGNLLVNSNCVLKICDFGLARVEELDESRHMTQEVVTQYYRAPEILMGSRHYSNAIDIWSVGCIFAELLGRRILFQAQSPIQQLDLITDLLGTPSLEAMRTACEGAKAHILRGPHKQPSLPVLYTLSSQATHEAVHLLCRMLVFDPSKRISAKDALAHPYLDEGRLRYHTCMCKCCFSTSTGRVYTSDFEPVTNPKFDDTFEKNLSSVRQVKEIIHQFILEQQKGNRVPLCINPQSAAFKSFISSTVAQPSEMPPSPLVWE

Tec(h)activated (human) = molecular target: T5, Tec(h)activated (human) (UniProt P42680)
T5 sequence (looked up): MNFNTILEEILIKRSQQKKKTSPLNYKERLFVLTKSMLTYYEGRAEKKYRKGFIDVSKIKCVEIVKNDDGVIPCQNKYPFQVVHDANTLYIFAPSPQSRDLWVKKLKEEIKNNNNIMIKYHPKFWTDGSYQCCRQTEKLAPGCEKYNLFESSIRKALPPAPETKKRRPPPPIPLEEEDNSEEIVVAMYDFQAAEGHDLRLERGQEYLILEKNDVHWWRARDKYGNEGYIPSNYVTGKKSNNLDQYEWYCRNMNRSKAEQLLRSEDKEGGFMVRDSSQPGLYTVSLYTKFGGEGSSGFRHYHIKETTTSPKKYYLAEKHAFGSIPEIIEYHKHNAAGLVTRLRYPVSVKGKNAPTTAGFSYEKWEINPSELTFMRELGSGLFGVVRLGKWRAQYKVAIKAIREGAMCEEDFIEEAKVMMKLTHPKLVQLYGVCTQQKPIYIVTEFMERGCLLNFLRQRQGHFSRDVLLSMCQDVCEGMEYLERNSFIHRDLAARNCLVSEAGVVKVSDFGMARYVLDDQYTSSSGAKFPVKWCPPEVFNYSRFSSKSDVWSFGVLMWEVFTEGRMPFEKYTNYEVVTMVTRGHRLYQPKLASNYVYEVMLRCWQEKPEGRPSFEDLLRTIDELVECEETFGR

ROCK-I(h) (human) = ROCK-I(h) (human) (UniProt Q13464)
Chain of ROCK-I(h) (human) (Q13464 17-535 limits assumed): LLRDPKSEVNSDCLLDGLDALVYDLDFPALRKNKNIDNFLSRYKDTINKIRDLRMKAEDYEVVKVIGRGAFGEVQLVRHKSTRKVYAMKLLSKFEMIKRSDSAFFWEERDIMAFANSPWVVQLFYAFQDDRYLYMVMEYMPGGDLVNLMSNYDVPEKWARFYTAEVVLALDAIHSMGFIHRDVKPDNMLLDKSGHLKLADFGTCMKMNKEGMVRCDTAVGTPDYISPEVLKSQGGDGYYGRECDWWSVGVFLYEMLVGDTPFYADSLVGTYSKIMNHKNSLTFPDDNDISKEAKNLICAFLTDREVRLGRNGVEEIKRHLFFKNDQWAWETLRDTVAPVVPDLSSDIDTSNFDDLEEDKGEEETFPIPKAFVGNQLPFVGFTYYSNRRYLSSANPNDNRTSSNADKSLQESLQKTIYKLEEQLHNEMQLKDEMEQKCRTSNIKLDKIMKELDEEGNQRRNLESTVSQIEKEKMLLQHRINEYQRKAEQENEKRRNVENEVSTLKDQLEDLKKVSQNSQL

PDGFRα(D842V)(h) (human) = PDGFRα(D842V)(h) (human) (UniProt P16234)
Chain of PDGFRα(D842V)(h) (human) (P16234 550-1089 D842V limits assumed): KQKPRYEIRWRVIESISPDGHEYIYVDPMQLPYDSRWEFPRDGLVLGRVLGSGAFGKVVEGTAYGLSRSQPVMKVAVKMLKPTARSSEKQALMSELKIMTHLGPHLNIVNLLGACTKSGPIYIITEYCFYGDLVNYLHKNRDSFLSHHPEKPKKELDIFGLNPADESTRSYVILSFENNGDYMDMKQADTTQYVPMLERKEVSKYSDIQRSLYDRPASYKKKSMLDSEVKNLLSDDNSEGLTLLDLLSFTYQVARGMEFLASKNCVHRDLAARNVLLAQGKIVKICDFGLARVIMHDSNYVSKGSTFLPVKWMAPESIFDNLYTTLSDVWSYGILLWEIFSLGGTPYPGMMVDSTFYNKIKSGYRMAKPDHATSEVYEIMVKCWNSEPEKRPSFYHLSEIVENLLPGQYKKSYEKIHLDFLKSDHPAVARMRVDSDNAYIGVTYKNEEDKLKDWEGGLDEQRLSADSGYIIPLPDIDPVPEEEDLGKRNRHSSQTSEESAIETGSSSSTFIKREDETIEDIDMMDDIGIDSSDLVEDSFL

HIPK3(h) (human) = HIPK3(h) (human) (UniProt Q9H422)
Chain of HIPK3(h) (human) (Q9H422 163-562 limits assumed): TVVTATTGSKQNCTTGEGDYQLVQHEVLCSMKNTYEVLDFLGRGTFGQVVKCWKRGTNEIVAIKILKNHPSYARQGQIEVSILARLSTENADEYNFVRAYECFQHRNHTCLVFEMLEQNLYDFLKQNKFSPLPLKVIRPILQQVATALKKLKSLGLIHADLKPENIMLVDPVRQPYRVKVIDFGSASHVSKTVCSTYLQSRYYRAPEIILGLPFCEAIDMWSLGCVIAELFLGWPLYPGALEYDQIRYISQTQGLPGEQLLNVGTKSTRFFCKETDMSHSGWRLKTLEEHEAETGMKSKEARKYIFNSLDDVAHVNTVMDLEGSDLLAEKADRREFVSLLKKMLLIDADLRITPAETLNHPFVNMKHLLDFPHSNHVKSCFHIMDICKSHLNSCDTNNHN

PAK4(h) (human) = PAK4(h) (human) (UniProt O96013)
Chain of PAK4(h) (human) (O96013 whole entry): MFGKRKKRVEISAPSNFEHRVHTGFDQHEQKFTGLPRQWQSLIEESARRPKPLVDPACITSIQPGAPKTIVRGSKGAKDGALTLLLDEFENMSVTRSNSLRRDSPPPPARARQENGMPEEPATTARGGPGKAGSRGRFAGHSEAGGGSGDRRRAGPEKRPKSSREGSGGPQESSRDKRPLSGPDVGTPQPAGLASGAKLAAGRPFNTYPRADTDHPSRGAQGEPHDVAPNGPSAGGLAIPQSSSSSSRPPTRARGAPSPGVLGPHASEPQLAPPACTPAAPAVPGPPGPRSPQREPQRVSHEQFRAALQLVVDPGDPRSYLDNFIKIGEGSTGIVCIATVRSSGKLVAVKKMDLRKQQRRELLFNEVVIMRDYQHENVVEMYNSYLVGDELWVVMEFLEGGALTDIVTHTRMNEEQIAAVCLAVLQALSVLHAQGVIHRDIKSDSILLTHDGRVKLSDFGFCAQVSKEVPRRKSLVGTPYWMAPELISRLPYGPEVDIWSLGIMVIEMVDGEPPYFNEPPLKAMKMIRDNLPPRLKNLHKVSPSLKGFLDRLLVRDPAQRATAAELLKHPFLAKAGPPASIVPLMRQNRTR

PKBα(h) (human) = PKBα(h) (human) (UniProt P31749)
Chain of PKBα(h) (human) (P31749 whole entry): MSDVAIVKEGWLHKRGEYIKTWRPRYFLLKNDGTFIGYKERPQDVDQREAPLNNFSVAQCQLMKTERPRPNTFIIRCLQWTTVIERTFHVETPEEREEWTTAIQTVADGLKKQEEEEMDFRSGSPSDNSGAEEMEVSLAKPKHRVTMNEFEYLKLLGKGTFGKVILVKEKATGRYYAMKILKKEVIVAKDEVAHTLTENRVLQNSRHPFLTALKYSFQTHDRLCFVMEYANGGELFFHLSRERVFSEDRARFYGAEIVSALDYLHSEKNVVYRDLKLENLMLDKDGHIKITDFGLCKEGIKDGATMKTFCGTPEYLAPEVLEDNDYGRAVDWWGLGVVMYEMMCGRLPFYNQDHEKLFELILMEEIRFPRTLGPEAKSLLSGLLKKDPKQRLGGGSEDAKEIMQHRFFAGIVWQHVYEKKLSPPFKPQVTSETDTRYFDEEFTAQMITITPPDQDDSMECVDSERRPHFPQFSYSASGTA

% activity, 100 µM (EphA5(h) (human)): 42% | % activity, 100 µM (IRAK1(h) (human)): 5% | % activity, 100 µM (CaMKIIδ(h) (human)): 1% | % activity, 100 µM (Snk(h) (human)): 122% | % activity, 100 µM (MLCK(h) (human)): 0% | % activity, 100 µM (EphA1(h) (human)): 40% | % activity, 100 µM (SGK3(h) (human)): -3% | % activity, 100 µM (SRPK2(h) (human)): 80% | % activity, 100 µM (NLK(h) (human)): 19% | % activity, 100 µM (Tec(h)activated (human)): 33% | % activity, 100 µM (ROCK-I(h) (human)): 17% | % activity, 100 µM (PDGFRα(D842V)(h) (human)): 170% | % activity, 100 µM (HIPK3(h) (human)): 85% | % activity, 100 µM (PAK4(h) (human)): 86% | % activity, 100 µM (PKBα(h) (human)): 30%
Substance: MMI-0500 (peptide)
